“Also recorded” adds a separate entry of the source.
B1: 238D2: Nanobody (VHH) raised against human CXCR4, SEQ ID NO: 238 (protein)
VHH: EVQLVESGGGLVQTGGSLRLSCAASGFTFSSYAMSWVRQAPGKGLEWVSGIKSSGDSTRYAGSVKGRFTISRDNAKNMLYLQMYSLKPEDTAVYYCAKSRVSRTGLYTYDNRGQGTQVTVSS
modifications: Nanobody, Nanobody constructs or fragments thereof
B2: 238D4: Nanobody (VHH) raised against human CXCR4, SEQ ID NO: 239 (protein)
VHH: EVQLMESGGGLVQAGGSLRLSCAASGRTFNNYAMGWFRRAPGKEREFVAAITRSGVRSGVSAIYGDSVKDRFTISRDNAKNTLYLQMNSLKPEDTAVYTCAASAIGSGALRRFEYDYSGQGTQVTVSS
modifications: Nanobody, Nanobody constructs or fragments thereof

Target: CXCR4 (N119A) (Homo sapiens, UniProt P61073, N119A)
Sequence (P61073 whole entry N119A): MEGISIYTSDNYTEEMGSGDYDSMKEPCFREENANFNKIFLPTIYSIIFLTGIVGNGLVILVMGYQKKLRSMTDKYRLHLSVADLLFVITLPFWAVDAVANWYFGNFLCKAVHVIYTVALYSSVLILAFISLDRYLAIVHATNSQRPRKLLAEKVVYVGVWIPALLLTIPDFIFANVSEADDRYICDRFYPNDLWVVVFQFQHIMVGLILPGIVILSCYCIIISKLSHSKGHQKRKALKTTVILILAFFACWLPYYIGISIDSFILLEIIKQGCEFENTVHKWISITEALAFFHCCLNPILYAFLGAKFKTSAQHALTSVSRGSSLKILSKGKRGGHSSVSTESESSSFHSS
Experiment: [125I]-CXCL12 competition binding on the constitutively active CXCR4 mutant N119A
Settings: for binding to / displacement of [125I]-CXCL12 from CXCR4 (N119A): highest test concentration 2 μM, n=3
Description: HEK293T cells were maintained at 37° C. in a humidified 5% CO2, 95% air atmosphere in Dulbecco's modified Eagle's medium (DMEM) containing 2 mM L-glutamine, 50 IU/ml penicillin, 50 μg/ml streptomycin, and 10% (v/v) fetal calf serum. Jurkat cells were cultured in a humidified 5% CO2, 95% air atmosphere in a 1:1 mixture of Dulbecco's modified Eagle's medium (DMEM) and Ham's F12 medium containing 2 mM L-glutamine, 50 IU/ml penicillin, 50 μg/ml streptomycin, and 10% (v/v) fetal calf serum. […] [^125 I]-Labelling— Radiolabeling of Nanobodies with ^125I was performed using the Iodo-gen method (Pierce, Rockford, Ill.) according to the manufacturer's protocol. ^125I-labeled Nanobodies was separated from free iodine (>99%) using a Sephadex G-25 gel filtration column (Amersham Biosciences, Piscataway, N.J.). […] Competition Binding Assays— Membranes from HEK293T cells transiently expressing CXCR3 or CXCR4 were prepared 48 h after transfection as follows. Cells were washed and scraped from the cell culture dishes with ice-cold PBS containing 1 mm EDTA. The scraped cells were pelleted at 1500×g for 10 min at 4° C. The pellet was washed and then resuspended in ice-cold membrane buffer (15 mM Tris, pH 7.5, 1 mM EGTA, 0.3 mM EDTA, and 2 mM MgCl2). The cell suspension was homogenized by 10 strokes at 1200 rpm using a Teflon-glass homogenizer and rotor and further subjected to three freeze-thaw cycles using liquid nitrogen. Membranes were separated by centrifugation at 40,000 g for 25 min at 4° C. The membrane pellet was washed and resuspended in ice-cold Tris-sucrose buffer (20 mM Tris, pH 7.4, and 250 mM sucrose) and frozen in liquid nitrogen. The total protein was determined using a Bradford assay (Bio-Rad). Periplasmas (1:10) or ligands were pre-incubated with membranes in binding buffer (50 mM HEPES (pH 7.4), 1 mM CaCl2, 5 mM MgCl2, 100 mM NaCl, 0.5% bovine serum albumin) supplemented with 0.5% BSA for 1 h at 22° C. before the addition of [^125I]-CXCL12 (40 pM) or [^125I]-238D2 (3 nM) or [^125I]-238D4 (3 nM) for additional 2 h at 22° C. […] Membranes were then harvested over polyethylenimine (0.5%)-treated Whatman GF/C filter plates and washed three times with ice cold binding buffer containing 500 mM NaCl. Plates were counted by liquid scintillation. Inositol Phosphate Accumulation Assay— 24 hours post transfection with pcDNA3.1-CXCR4 and pcDNA1-HA-mG {alpha} qi5 (see Verzijl et al, 2008 supra), 250.000 cells were seeded into 24-wells plates and labelled overnight using inositol-free minimal essential medium supplemented with 1 μCi myo-[2-^3H]-inositol. The next day, the cells were washed once to remove not incorporated myo-[2-^3H]-inositol. […] The accumulated inositol phosphates were isolated by anion exchange chromatography and counted by liquid scintillation. […]

Molecule | binding affinity at CXCR4 (N119A) compared to the wild type receptor | binding to / displacement of [125I]-CXCL12 from CXCR4 (N119A)
B1 | somewhat less | displace; also recorded: able to bind
B2 | somewhat less | displace; also recorded: able to bind

From patent US9212226B2, “Amino acid sequences directed against CXCR4 and other GPCRs and compounds comprising the same” (Ablynx N.V., priority 2008, dated 2015)
